# PMC11327267 (Nature Communications, 2024)
# T1: human FIGNL1ΔN (fidgetin-like 1 in which the N-terminal 284 aa were deleted) (human, UniProt Q6PIW4 285-674)
# T1 sequence: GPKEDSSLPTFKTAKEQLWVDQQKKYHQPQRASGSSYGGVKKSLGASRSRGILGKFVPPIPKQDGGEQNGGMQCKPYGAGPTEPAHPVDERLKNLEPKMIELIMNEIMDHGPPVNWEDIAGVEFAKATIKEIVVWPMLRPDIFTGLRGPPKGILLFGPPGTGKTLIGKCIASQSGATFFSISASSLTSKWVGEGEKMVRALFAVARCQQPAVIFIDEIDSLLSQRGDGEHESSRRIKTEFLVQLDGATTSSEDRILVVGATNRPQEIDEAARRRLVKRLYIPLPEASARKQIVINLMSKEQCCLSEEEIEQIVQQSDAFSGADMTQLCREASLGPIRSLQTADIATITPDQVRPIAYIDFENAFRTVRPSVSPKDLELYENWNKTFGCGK
# B1: human DMC1 (natural protein)
# chain: MKEDQVVAEEPGFQDEEESLFQDIDLLQKHGINVADIKKLKSVGICTIKGIQMTTRRALCNVKGLSEAKVDKIKEAANKLIEPGFLTAFEYSEKRKMVFHITTGSQEFDKLLGGGIESMAITEAFGEFRTGKTQLSHTLCVTAQLPGAGGYPGGKIIFIDTENTFRPDRLRDIADRFNVDHDAVLDNVLYARAYTSEHQMELLDYVAAKFHEEAGIFKLLIIDSIMALFRVDFSGRGELAERQQKLAQMLSRLQKISEEYNVAVFVTNQMTADPGATMTFQADPKKPIGGHILAHASTTRISLRKGRGELRIAKIYDSPEMPENEATFAITAGGIGDAKE
# B2: human RAD51 (natural protein)
# chain: MAMQMQLEANADTSVEEESFGPQPISRLEQCGINANDVKKLEEAGFHTVEAVAYAPKKELINIKGISEAKADKILAEAAKLVPMGFTTATEFHQRRSEIIQITTGSKELDKLLQGGIETGSITEMFGEFRTGKTQICHTLAVTCQLPIDRGGGEGKAMYIDTEGTFRPERLLAVAERYGLSGSDVLDNVAYARAFNTDHQTQLLYQASAMMVESRYALLIVDSATALYRTDYSGRGELSARQMHLARFLRMLLRLADEFGVAVVITNQVVAQVDGAAMFAADPKKPIGGNIIAHASTTRLYLRKGRGETRICKIYDSPCLPEAEAMFAINADGVGDAKD
# Molecular target: T1, human FIGNL1ΔN (fidgetin-like 1 in …)
# Assay: native gel or EMSA
row,Binder,binding result
1,B1,binds
2,B2,binds
